PMC6233201 (Scientific Reports, 2018)

Target: the molecule itself
Experiment: SEC; gel filtration (Superdex 200 10/300 GL) of the Ni-NTA purified DEDs; self-association read from the elution position (monomer, dimer, oligomer peaks)

B1: wild-type death effector domains (DEDs) of human caspase-8 (residues 1-188) with a C-terminal His6 tag (domain or fragment, UniProt Q14790-1 1-188, looked up)
chain: MDFSRNLYDIGEQLDSEDLASLKFLSLDYIPQRKQEPIKDALMLFQRLQEKRMLEESNLSFLKELLFRINRLDLLITYLNTRKEEMERELQTPGRAQISAYRVMLYQISEEVSRSELRSFKFLLQEEISKCKLDDDMNLLDIFIEMEKRVILGEGKLDILKRVCAQINKSLLKIINDYEEFSKERSSS
notes: tandem death effector domains (DED) of human caspase-8, residues 1-188, UniProt Q14790-1; The soluble protein was mixed with E. coli slyD after purification; also called DED^WT; wild-type DEDs; source: E. coli Rosetta (DE3) pLysS, pET-21b, purified (Ni-NTA, gel filtration); very low yields of soluble protein; not shown: His6, C-terminal, kept
- binding result: binds
